Biological target: HLA-B*08:01 (Homo sapiens, UniProt P01889)
Test: MHC binding assay (UV-ligand exchange, beta2m ELISA)
Conditions: MHC class I binding score; binding to HLA-B*08:01 ranged by peptide exchange yield (UV-ligand exchange, β2m ELISA)
From the text: Candidate peptides for T cell based therapies according to the present invention were further tested for their MHC binding capacity (affinity). The individual peptide-MHC complexes were produced by UV-ligand exchange, where a UV-sensitive peptide is cleaved upon UV-irradiation and exchanged with the peptide of interest as analyzed. Only peptide candidates that can effectively bind and stabilize the peptide-receptive MHC molecules prevent dissociation of the MHC complexes. To determine the yield of the exchange reaction, an ELISA was performed based on the detection of the light chain (β2m) of stabilized MHC complexes. The assay was performed as generally described in Rodenko et al. (Rodenko et al., 2006).
96 well MAXISorp plates (NUNC) were coated over night with 2 ug/ml streptavidin in PBS at room temperature, washed 4× and blocked for 1 h at 37° C. in 2% BSA containing blocking buffer. Refolded HLA-A*02:01/MLA-001 monomers served as standards, covering the range of 15-500 ng/ml. Peptide-MHC monomers of the UV-exchange reaction were diluted 100-fold in blocking buffer. Samples were incubated for 1 h at 37° C., washed four times, incubated with 2 ug/ml HRP conjugated anti-β2m for 1 h at 37° C., washed again and detected with TMB solution that is stopped with […]. Absorption was measured at 450 nm. Candidate peptides that show a high exchange yield (preferably higher than 50%, most preferred higher than 75%) are generally preferred for a generation and production of antibodies or fragments thereof, and/or T cell receptors or fragments thereof, as they show sufficient avidity to the MHC molecules and prevent dissociation of the MHC complexes.

| Substance | Peptide exchange |
| --- | --- |
| 139 (YGRIGISLF; listed as Homo sapiens) [compound 139] | ++ (20% = ++) |
| 174 (HAMPSPRIL; listed as Homo sapiens) [compound 174] | ++ (20% = ++) |
| 188 (EIMEKTTL; listed as Homo sapiens) [compound 188] | ++ (20% = ++) |
| 150 (MRSSYIREL; listed as Homo sapiens) [compound 150] | ++ (20% = ++) |
| 239 (SEPVMRVTL; listed as Homo sapiens) [compound 239] | ++ (20% = ++) |
| 243 (EGVPPGTVL; listed as Homo sapiens) [compound 243] | +++ (50% = +++) |
| 167 (DMKITVSL; listed as Homo sapiens) [compound 167] | +++ (50% = +++) |
| 249 (QQIDRVVEV; listed as Homo sapiens) [compound 249] | ++ (20% = ++) |
| 84 (YITRQFVQF; listed as Homo sapiens) [compound 84] | ++ (20% = ++) |
| 99 (NVKIRFLE; listed as Homo sapiens) [compound 99] | ++ (20% = ++) |
| 178 (IPRLAVISI; listed as Homo sapiens) [compound 178] | ++ (20% = ++) |
| 232 (KLYIHRVTL; listed as Homo sapiens) [compound 232] | ++ (20% = ++) |
| 195 (EGNQKSVI; listed as Homo sapiens) [compound 195] | ++ (20% = ++) |
| 138 (TQHLTVATL; listed as Homo sapiens) [compound 138] | +++ (50% = +++) |
| 233 (DVKLVFVM; listed as Homo sapiens) [compound 233] | ++ (20% = ++) |
| 125 (FPLVTPLL; listed as Homo sapiens) [compound 125] | +++ (50% = +++) |
| 30 (DLQKKAQAL; listed as Homo sapiens) [compound 30] | ++ (20% = ++) |
| 186 (DLISPRQPRL; listed as Homo sapiens) [compound 186] | ++ (20% = ++) |
| 73 (MFPARGVPL; listed as Homo sapiens) [compound 73] | ++ (20% = ++) |
| 197 (YKAYPSQL; listed as Homo sapiens) [compound 197] | ++ (20% = ++) |
| 16 (NRKPRTPF; listed as Homo sapiens) [compound 16] | ++ (20% = ++) |
| 246 (RLLQKSKEL; listed as Homo sapiens) [compound 246] | ++ (20% = ++) |
| 215 (NPLIEIISI; listed as Homo sapiens) [compound 215] | ++ (20% = ++) |
| 251 (DAAAFFKSV; listed as Homo sapiens) [compound 251] | ++ (20% = ++) |
| 135 (EYLETKRLAF; listed as Homo sapiens) [compound 135] | + (0% = +) |

| Substance | Peptide exchange |
| --- | --- |
| 96 (RPAGVFEL; listed as Homo sapiens) [compound 96] | ++ (20% = ++) |
| 223 (DVSARKLRV; listed as Homo sapiens) [compound 223] | ++ (20% = ++) |
| 177 (SVPVRSSPL; listed as Homo sapiens) [compound 177] | ++ (20% = ++) |
| 244 (HALPPYITVL; listed as Homo sapiens) [compound 244] | ++ (20% = ++) |
| 114 (PVKPKFYL; listed as Homo sapiens) [compound 114] | ++ (20% = ++) |
| 170 (SPANVRGQSL; listed as Homo sapiens) [compound 170] | ++ (20% = ++) |
| 7 (AARLRPAL; listed as Homo sapiens) [compound 7] | ++ (20% = ++) |
| 212 (EEYKFPSL; listed as Homo sapiens) [compound 212] | ++ (20% = ++) |
| 129 (HRILRLPAL; listed as Homo sapiens) [compound 129] | +++ (50% = +++) |
| 166 (VLSGGRILAL; listed as Homo sapiens) [compound 166] | ++ (20% = ++) |
| 143 (DADLREQAL; listed as Homo sapiens) [compound 143] | ++ (20% = ++) |
| 124 (HSWTRTSV; listed as Homo sapiens) [compound 124] | +++ (50% = +++) |
| 192 (EEKHFTTL; listed as Homo sapiens) [compound 192] | ++ (20% = ++) |
| 156 (ILKEQSSSSF; listed as Homo sapiens) [compound 156] | ++ (20% = ++) |
| 199 (IPFIHLPEI; listed as Homo sapiens) [compound 199] | ++ (20% = ++) |
| 162 (LFKQTKINL; listed as Homo sapiens) [compound 162] | ++ (20% = ++) |
| 205 (YMQYGFLSM; listed as Homo sapiens) [compound 205] | ++ (20% = ++) |
| 201 (TASAMQHVL; listed as Homo sapiens) [compound 201] | +++ (50% = +++) |
| 227 (SRFPGMSVL; listed as Homo sapiens) [compound 227] | ++ (20% = ++) |
| 44 (HLTNRVLSL; listed as Homo sapiens) [compound 44] | +++ (50% = +++) |
| 52 (ELILKHSL; listed as Homo sapiens) [compound 52] | +++ (50% = +++) |
| 122 (ESSAQPTAL; listed as Homo sapiens) [compound 122] | ++ (20% = ++) |
| 95 (SRNPRGFFL; listed as Homo sapiens) [compound 95] | ++ (20% = ++) |
| 196 (LDLRQKVL; listed as Homo sapiens) [compound 196] | ++ (20% = ++) |
| 137 (VQWKPPAL; listed as Homo sapiens) [compound 137] | ++ (20% = ++) |

| Substance | Peptide exchange |
| --- | --- |
| 108 (RSYYHPTNL; listed as Homo sapiens) [compound 108] | ++ (20% = ++) |
| 109 (IPASHPVLTL; listed as Homo sapiens) [compound 109] | ++ (20% = ++) |
| 222 (AQKAELIAL; listed as Homo sapiens) [compound 222] | ++ (20% = ++) |
| 120 (AQRSEMVTL; listed as Homo sapiens) [compound 120] | ++ (20% = ++) |
| 148 (DVNPVSLQL; listed as Homo sapiens) [compound 148] | ++ (20% = ++) |
| 213 (FPSLFINQF; listed as Homo sapiens) [compound 213] | ++ (20% = ++) |
| 55 (VLLSRRTAL; listed as Homo sapiens) [compound 55] | ++ (20% = ++) |
| 54 (DLSRRDVSL; listed as Homo sapiens) [compound 54] | ++ (20% = ++) |
| 171 (FPSQVPKQVL; listed as Homo sapiens) [compound 171] | ++ (20% = ++) |
| 208 (LPPPQPLSL; listed as Homo sapiens) [compound 208] | ++ (20% = ++) |
| 77 (LPKLPVPPL; listed as Homo sapiens) [compound 77] | +++ (50% = +++) |
| 132 (IPIQAHQI; listed as Homo sapiens) [compound 132] | +++ (50% = +++) |
| 141 (AQLKLVAL; listed as Homo sapiens) [compound 141] | ++ (20% = ++) |
| 134 (DQRSRATL; listed as Homo sapiens) [compound 134] | ++ (20% = ++) |
| 98 (EPVNTNVVL; listed as Homo sapiens) [compound 98] | ++ (20% = ++) |
| 219 (VRNPKILIL; listed as Homo sapiens) [compound 219] | ++ (20% = ++) |
| 81 (MYRKEQYL; listed as Homo sapiens) [compound 81] | ++ (20% = ++) |
| 65 (NLLMRNVL; listed as Homo sapiens) [compound 65] | ++ (20% = ++) |
| 155 (LPASFPAVL; listed as Homo sapiens) [compound 155] | ++ (20% = ++) |
| 64 (FILGREAGAL; listed as Homo sapiens) [compound 64] | ++ (20% = ++) |
| 159 (DLRNKIIA; listed as Homo sapiens) [compound 159] | ++ (20% = ++) |
| 210 (QPNTHQLL; listed as Homo sapiens) [compound 210] | ++ (20% = ++) |
| 131 (MSTKTTSI; listed as Homo sapiens) [compound 131] | ++ (20% = ++) |
| 53 (DLRKLKRQL; listed as Homo sapiens) [compound 53] | ++ (20% = ++) |
| 136 (KMFYRKDVM; listed as Homo sapiens) [compound 136] | +++ (50% = +++) |
